For 2 molecules, Kd, koff and kon results are on record in paper PMC5518211 (Journal of Molecular Recognition, 2017).

Like-named read-outs stand apart in the source and are kept apart here. Ends that are not written are not given here.

Holding throughout (experiment): SPR
Experiment [1] deals with T1, Calmodulin ( (human brain CaM or …, UniProt P0DP23 1-149)).
Experiment [2] addresses T1, Calmodulin. This is another data set of the same source.
Experiment [3] deals with T1, Calmodulin. This is another data set of the same source.
Experiment [4] addresses T1, Calmodulin. This is another data set of the same source.

B1: Full-length recombinant human neurogranin with a His-tag at the N-terminus (natural protein)
chain: MDCCTENACSKPDDDILDIPLDDPGANAAAAKIQASFRGHMARKKIKSGERGRKGPGPGGPGGAGVARGGAGGGPSGD
Broadly, the Kd is the equilibrium constant for the complex coming apart. A lower Kd goes with a tighter complex. A word on the koff: it is the rate constant with which the complex falls apart. Low values mean a long-lived complex, high ones a short-lived complex. One may read the kon as a measure of how fast the partners come together. A lower kon goes with slower complex formation. Molecule B1 showed a Kd with Calmodulin [1] of 19000 nM. In the experiment with Calmodulin [2], this molecule registered a dissociation constant (Kd) of 480 nM, a dissociation rate constant (koff) of 0.16 s⁻¹ and an on-rate constant (kon) of 340000 M⁻¹ s⁻¹.
Take LKKFNARRKLKGAILTTMLA (not fully specified) [Peptide corresponding to the CaM-binding region of CaMKIIα (CaMKII 290-309)]: in the experiment with Calmodulin [3], the koff was around 1 s⁻¹ and the on-rate constant (kon) was around 1e+09 M⁻¹ s⁻¹. In the experiment with Calmodulin [4], this molecule had a dissociation constant Kd of 7.1 nM.
